Patent US20260193323

How the values were obtained:
[1] = test system: T1, LEKTI Domain 6 (ct His6 tag)
T1 sequence: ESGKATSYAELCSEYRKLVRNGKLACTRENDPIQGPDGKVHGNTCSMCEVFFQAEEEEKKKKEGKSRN

[2] = test system: T2, recombinantly produced LEKTI Domain 6
T2 sequence: T1 sequence

Substance: trypsin
- trypsin activity (L-BAPNA substrate, 405 nm) [1]: recombinantly produced LEKTI Domain 6 (ct His6 tag) inhibits trypsin in vitro compared to LEKTI domains 10-15
- Trypsin activity (rate of change in the absorbance at 405 nm, L-BAPNA cleavage, per minute) [2]: LEKTI Domain 6 inhibited trypsin activity in vitro
